Reference: patent US8106168B2, “Metalloproteinase binding proteins” (Dyax Corp., priority 2005, dated 2012)
Where a chain is given by its changes, count along the chain named. Values belong to the molecule of their own block, whether it stands above or below them.

Target: MMP-14 (Homo sapiens, UniProt P50281)
Assay: Selection and phage ELISA screening of anti-MMP-14 Fabs
Format: binding
Settings: Fab from FAB310 phage display library
Procedure: Strategy I: A 100-fold excess of the FAB310 library (e.g., an amount of the library that should contain 100 copies of each library member) was depleted of streptavidin-binding antibodies by incubating the library with 200 μL of streptavidin beads for 1 hour at room temperature (RT) with rotation. 500 nM of biotinylated MMP-14 was coupled to streptavidin beads by incubation with 100 μL of streptavidin beads. The MMP-14 beads were then incubated with the streptavidin-depleted library for 1 hour at RT with rotation. The beads were then rinsed three times with 2% MTRIS/0.1% Tween, transferred to a fresh tube and washed an additional three times with 2% MTRIS/0.1% Tween, and transferred to a fresh tube and washed a final time with Round 1 TRIS buffer (50 mM TRIS; 50 mM CaCl2; 150 mM NaCl, pH 7.5).
MMP-14 binding antibodies were eluted from the beads by re-suspension in 1 mL 2% MTRIS containing 2.5 μM TIMP-2 and incubation for 1 hour at RT with rotation. The beads were then washed three times with 2% MTRIS/0.1% Tween, transferred to a fresh tube and washed three times with TRIS/0.1% Tween, and transferred to a fresh tube and washed a final time with TRIS. 1 mL output was used for infection of 9 mL TG1 bacteria (grown to OD600=0.5). The beads were further eluted by suspension in 1 mL 100 mM TEA for 10 minutes. The supernatant was neutralized with 500 μl TRIS/HCl pH 7.5. 1 mL of the second elution was used for infection of 9 mL TG1 bacteria (grown to OD600=0.5).
Two additional rounds of selection were carried out under the same conditions as the first round, except that the streptavidin beads were loaded with 100 nM biotinylated MMP-14 and the number of washes were doubled (6 times with 2% MTRIS/0.1% Tween, 6 times with TRIS/0.1% Tween and 2 times with TRIS), and Round 2/3 Tris buffer (50 mM TRIS; 5 mM CaCl2; 150 mM NaCl pH=7.5) was used for incubation and wash.
TIMP-2 was coupled to carboxylic beads, then complexed with a combination of biotinylated MMP-14 (500 nM each). The complexed beads were incubated with a 100 fold excess of FAB310 library that had been previously depleted by incubation with streptavidin beads and carboxylic beads. Elution/washing was carried out as for Strategy I.
Two additional rounds of selection were carried out, essentially as described for Strategy I, except that only 100 nM of each of MMP-14 were used in the bead complexes.
384-well plates were coated with biotinylated BSA (2 μg/ml in 50 mM TRIS; 5 mM CaCl2; 150 mM NaCl, pH 7.5), then washed 3 times with 50 mM TRIS; 5 mM CaCl2; 150 mM NaCl, pH 7.5; 0.1% Tween. Streptavidin was captured on the coated plates by incubation with 10 μg/mL streptavidin in 50 mM TRIS; 5 mM CaCl2; 150 mM NaCl pH 7.5; 0.5% Gelatin, followed by a wash with 50 mM TRIS; 5 mM CaCl2; 150 mM NaCl pH=7.5; 0.1% Tween. On the day the assay was to be performed, biotinylated MMP-14 (1 μg/ml) was captured in 50 mM TRIS; 5 mM CaCl2; 150 mM NaCl, pH 7.5.
95 clones were picked from each of Round 2 and Round 3 of each selection strategy, producing 12 masterplates. ELISA was run on the MiniTrak-5 deck according to SOP.

bind to human MMP-14: bind to human MMP-14
B1: M0037-A08: Fab that binds human MMP-14; DNA LV SEQ ID NO: 36, HV SEQ ID NO: 37 (antibody, V domains shown)
VL: QDIQMTQSPSSVSASVGDRVTITCRASQGVSSYLAWYQQKPGKAPKLLIYGASTLQNGVPSRFSGSGSGTDFTLTISSLQPEDFATYHCQQVHSFPPTFGQGTKVEIK
VH: EVQLLESGGGLVQPGGSLRLSCAASGFTFSHYMMMWVRQAPGKGLEWVSGISSSGGRTGYADSVKGRFTISRDNSKNTLYLQMNSLRAEDTAVYYCASFGNSGSYSWRAFDIWGQGTTVTVSS
modifications: Synthetically generated oligonucleotide

bind to human MMP-14: bind to human MMP-14
B2: M0037-B10: Fab that binds human MMP-14; DNA LV SEQ ID NO: 38, HV SEQ ID NO: 39 (antibody, V domains shown)
VH: EVQLLESGGGLVQPGGSLRLSCAASGFTFSVYYMGWVRQAPGKGLEWVSYIGSSGGWTEYADSVKGRFTISRDNSKNTLYLQMNSLRAEDTAVYYCARDLSAVAGLGGAFDIWGQGTMVTVSS
VL: QDIQMTQSPSSLSASVGDRVAITCRASQSIDTYLNWYQQKPGKAPKLLIYAASKLEDGVPSRFSGSGTGTDFTLTIRSLQPEDFASYFCQQSYSSPGITFGPGTKVEIK

bind to human MMP-14: bind to human MMP-14
B3: M0038-C05: Fab that binds human MMP-14; DNA LV SEQ ID NO: 50, HV SEQ ID NO: 51 (antibody, V domains shown)
VL: QDIQMTQSPSSLSASVGDRVTITCRASQSISSYLNWYQQKPGKAPKLLIYAASSLQSGVPSRFSGSGSGTDFTLTISRLEPEDFAVYYCQQYGSSPTFGQGTKVEIK
VH: EVQLLESGGGLVQPGGSLRLSCAASGFTFSSYIMVWVRQAPGKGLEWVSVIYPSGGPTYYADSVKGRFTISRDNSKNTLYLQMNSLRAEDTAVYYCARDPRLERFYFDYWGQGTLVTVSS
modifications: Synthetically generated oligonucleotide

bind to human MMP-14: bind to human MMP-14
B4: M0038-E05: Fab that binds human MMP-14; DNA LV SEQ ID NO: 56, HV SEQ ID NO: 57 (antibody, V domains shown)
VL: QDIQMTQSPSSVSASVGDRVTITCRASQHISNWLAWYQQKPGEAPKLLISAASSLQSGVPSRFSGSGSGTDFTLTISSLQPEDFATYYCQQSYSTPLTFGGGTKVEIK
VH: EVQLLESGGGLVQPGGSLRLSCAASGFTFSPYHMTWVRQAPGKGLEWVSSISSSGGHTEYADSVKGRFTISRDNSKNTLYLQMNSLRAEDTAVYYCATAWAGFTFNVWGQGTMVTVSS
modifications: Synthetically generated oligonucleotide

bind to human MMP-14: bind to human MMP-14
B5: M0037-C03: Fab that binds human MMP-14; DNA LV SEQ ID NO: 40, HV SEQ ID NO: 41 (antibody, V domains shown)
VL: QDIQMTQSPSSVSASVGDRVTITCRASQGISSWLAWYQQKPGKAPKLLIYAASSLQSGVPSRFSGSGSGTDFTLTISSLQPEDFATYYCQQANSFPFVTFGQGTKLEIK
VH: EVQLLESGGGLVQPGGSLRLSCAASGFTFSMYLMIWVRQAPGKGLEWVSVISSSGGQTKYADSVKGRFTISRDNSKNTLYLQMNSLRAEDTAVYYCARTDLTGYSAGAFDIWGQGTMVTVSS
modifications: Synthetically generated oligonucleotide

bind to human MMP-14: bind to human MMP-14
B6: M0035-F02: Fab that binds human MMP-14; DNA LV SEQ ID NO: 28, HV SEQ ID NO: 29 (antibody, V domains shown)
VH: EVQLLESGGGLVQPGGSLRLSCAASGFTFSFYRMEWVRQAPGKGLEWVSSIVPSGGFTRYADSVKGRFTISRDNSKNTLYLQMNSLRAEDTAVYYCARFHVLRYFDWFGNTQDTDAFDIWGQGTLVTVSS
VL: QDIQMTQSPATLSLSPGERATLSCRASQSVSNYLAWYQQKPGQAPRLLIYDASNRATGIPARFSGSGSGTDFTLTISSLEPEDFAVYYCQQRSNWPLTFGGGTKVEIK
modifications: Synthetically generated oligonucleotide

bind to human MMP-14: bind to human MMP-14
B7: M0036-D02: Fab that binds human MMP-14; DNA LV SEQ ID NO: 30, HV SEQ ID NO: 31 (antibody, V domains shown)
VL: B6 VL with R19K, S29T, S31Y, S53F, S93G, L97R, G101Q
VH: EVQLLESGGGLVQPGGSLRLSCAASGFTFSFYKMTWVRQAPGKGLEWVSGIYPSGGRTVYADSVKGRFTISRDNSKNTLYLQMNSLRAEDTAMYYCARGPHYYDSPGAFDIWGQGTMVTVSS
modifications: Synthetically generated oligonucleotide

bind to human MMP-14: bind to human MMP-14
B8: M0038-D06: Fab that binds human MMP-14; DNA LV SEQ ID NO: 54, HV SEQ ID NO: 55 (antibody, V domains shown)
VL: B6 VL with N32S, G101Q, K104R, V105L
VH: EVQLLESGGGLVQPGGSLRLSCAASGFTFSWYYMGWVRQAPGKGLEWVSYIGSSGGMTGYADSVKGRFTISRDNSKNTLYLQMNSLRAEDTATYYCAMVGFLPTVDYWGQGTLVTVSS
modifications: Synthetically generated oligonucleotide

bind to human MMP-14: bind to human MMP-14
B9: M0036-F02: Fab that binds human MMP-14; DNA LV SEQ ID NO: 32, HV SEQ ID NO: 33 (antibody, V domains shown)
VL: QYELTQPPSLSVSPGQTASITCSGEKLGEKFASWYQRRPGQSPLLIIYQDNKRPSGIPERFSGSNSGNTAALTITGTQAMDDADYYCQAWESTTAVFGGGTKLTVL
VH: EVQLLESGGGLVQPGGSLRLSCAASGFTFSRYTMGWVRQAPGKGLEWVSRIYSSGGNTVYADSVKGRFTISRDNSKNTLYLQMNSLRAEDTATYYCARTRRDGYNPFDYWGQGTLVTVSS
modifications: Synthetically generated oligonucleotide

bind to human MMP-14: bind to human MMP-14
B10: M0037-H09: Fab that binds human MMP-14; DNA LV SEQ ID NO: 46, HV SEQ ID NO: 47 (antibody, V domains shown)
VL: QDIQMTQSPLSLPVTPGEPASISCRSSQSLLHGNGNNYLDWYLQKPGQSPQLLIYLGSNRASGVPDRFSGSGSGTDFTLKISSVEAEDVGVYYCMQGLQTPHTFGQGTQLEIK
VH: EVQLLESGGGLVQPGGSLRLSCAASGFTFSRYWMDWVRQAPGKGLEWVSSIRSSGGMTGYADSVKGRFTISRDNSKNTLYLQMNSLRAEDTAVYYCARHRTGRGAFDIWGQGTTVTVSS
modifications: Synthetically generated oligonucleotide

bind to human MMP-14: bind to human MMP-14
B11: M0038-B06: Fab that binds human MMP-14; DNA LV SEQ ID NO: 48, HV SEQ ID NO: 49 (antibody, V domains shown)
VL: QDIQMTQSPSSLSASVGDRVTITCRASQSISSYLNWYQQKPGKAPKLLIYAASSLQSGVPSRFRGSGSGTDFSLTISSLQPEDFATYYCQQTYSGLPTFGGGTVVEIK
VH: EVQLLESGGGLVQPGGSLRLSCAASGFTFSSYVMGWVRQAPGKGLEWVSVISPSGGWTTYADSVKGRFTISRDNSKNTLYLQMNSLRAEDTATYYCASRGVVTNLDYWGQGTLVTVSS
modifications: Synthetically generated oligonucleotide

bind to human MMP-14: bind to human MMP-14
B12: M0030-A04: Fab that binds human MMP-14; DNA LV SEQ ID NO: 6, HV SEQ ID NO: 7 (antibody, V domains shown)
VH: EVQLLESGGGLVQPGGSLRLSCAASGFTFSVYEMNWVRQAPGKGLEWVSSIYSSGGRTDYADSVKGRFTISRDNSKNTLYLQMNSLRAEDTAVYYCAREAHYYDSSGPPDYWGQGTLVTVSS
VL: QSELTQPPSASGTPGQRVTISCSGSSSNIGINFVTWYQQLPGTAPKLLIYTNNQRPSGVPDRFSSSKSGASASLAISGLQSEDEAAYYCAAWDDNLNGPVFGGGTKLTVL
modifications: Synthetically generated oligonucleotide
